{
  "source": "the RNAGym collection of RNA variant scans (doi:10.1073/pnas.2313332121)",
  "parents": {"B1": {"name": "TPR 5TU (parent)", "chain": "GGAUCUUCUCGAUCUAACAAAAAAGACAAAUCUGCCACAAAGCUUGAGAGCAUCUUCGGAUGCAGAGGCGGCAGCCUUCGGUGGCGCGAUAGCGCCAACGUUCUCAACUAUGACACGCAAAACGCGUGCUCCGUUGAAUGGAGUUUAUCAUG"}},
  "note": "This sample holds only a part of the variants without activity.",
  "data": [
    {"variants_of": "B1", "assay": "polymerase ribozyme fitness, log enrichment relative to wild type (log ratio); higher = more active; in vitro selection for triplet polymerase activity", "in_short": "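Each subunit of a heterodimeric triplet polymerase ribozyme was represented by a PCR-built, transcribed mutant library that underwent triplicate single-round in vitro selection with frozen incubation at −7 °C. Extended constructs were recovered by gel excision, streptavidin-bead capture and RT-PCR, and Illumina sequencing of input and output libraries kept genotypes with ≥10 input reads and ≥1 read per output. Fitness is the logarithm of genotype enrichment relative to wild-type enrichment, from inverse-variance-weighted replicate averages, with a logarithm base of 2.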", "values": [
      {"variant": "A20G U56A", "polymerase ribozyme fitness (log ratio)": -0.723},
      {"variant": "A20G A30U C63A C87U U146C", "polymerase ribozyme fitness (log ratio)": "≤ -4.2"},
      {"variant": "A22C G34U U82A C93A", "polymerase ribozyme fitness (log ratio)": "≤ -4.2"},
      {"variant": "A20C G50C U55G C105U", "polymerase ribozyme fitness (log ratio)": "≤ -4.2"},
      {"variant": "A20U A21G A30G C99A", "polymerase ribozyme fitness (log ratio)": -4.05},
      {"variant": "A21G G42A A49C A66U U82C C87U U135G U145A U148A", "polymerase ribozyme fitness (log ratio)": "≤ -4.2"},
      {"variant": "A22C A26G A30U U45G G74C C103G G140U", "polymerase ribozyme fitness (log ratio)": "≤ -4.2"},
      {"variant": "A21U G34A C93U C99G C149G", "polymerase ribozyme fitness (log ratio)": "≤ -4.2"},
      {"variant": "A21U C79G C96U C105U U134A", "polymerase ribozyme fitness (log ratio)": "≤ -4.2"},
      {"variant": "A20C U55A A89G G94C C95A C108G C123G", "polymerase ribozyme fitness (log ratio)": "≤ -4.2"},
      {"variant": "A20G G46A U55G G70A C76U G84A C96U C103G C114U G152U", "polymerase ribozyme fitness (log ratio)": "≤ -4.2"},
      {"variant": "A20G A47G", "polymerase ribozyme fitness (log ratio)": -0.368},
      {"variant": "A21G C93A C103U", "polymerase ribozyme fitness (log ratio)": -1.75},
      {"variant": "A21C C96U", "polymerase ribozyme fitness (log ratio)": 0.207},
      {"variant": "A21U A23C C38A C99G A142C", "polymerase ribozyme fitness (log ratio)": "≤ -4.2"},
      {"variant": "A20U C54G", "polymerase ribozyme fitness (log ratio)": -2.64},
      {"variant": "A21U G34A G83C", "polymerase ribozyme fitness (log ratio)": -2.46},
      {"variant": "A21G G70A", "polymerase ribozyme fitness (log ratio)": -3.35},
      {"variant": "A20U C87G A91U", "polymerase ribozyme fitness (log ratio)": "≤ -4.2"},
      {"variant": "A21C A40C G94A G128U", "polymerase ribozyme fitness (log ratio)": -3.51},
      {"variant": "A21U C75G", "polymerase ribozyme fitness (log ratio)": -4.03},
      {"variant": "A22C C85A A137G", "polymerase ribozyme fitness (log ratio)": -2.49},
      {"variant": "A21C C43A G50C G74C C76A C87A A91G A119G", "polymerase ribozyme fitness (log ratio)": "≤ -4.2"},
      {"variant": "A20G G46U G92U", "polymerase ribozyme fitness (log ratio)": -0.107},
      {"variant": "A20G U45C U56G C57U C75A C87G G136C", "polymerase ribozyme fitness (log ratio)": "≤ -4.2"},
      {"variant": "A20G A40C A49C G50A G65C G68A C87U G124U", "polymerase ribozyme fitness (log ratio)": "≤ -4.2"},
      {"variant": "A21G A26C A66U C87G A115C U134C U146A", "polymerase ribozyme fitness (log ratio)": "≤ -4.2"},
      {"variant": "A22C C131G", "polymerase ribozyme fitness (log ratio)": -3.49},
      {"variant": "A20U C54A G92U", "polymerase ribozyme fitness (log ratio)": -3.48},
      {"variant": "A21U U82G C93G", "polymerase ribozyme fitness (log ratio)": -3.69},
      {"variant": "A20U A22U A52C G67A U127A", "polymerase ribozyme fitness (log ratio)": "≤ -4.2"},
      {"variant": "A20C G94U G152C", "polymerase ribozyme fitness (log ratio)": -2.76},
      {"variant": "A20U C35U C95A A97G C99A C105U A138G", "polymerase ribozyme fitness (log ratio)": "≤ -4.2"},
      {"variant": "A20U U33G G42U C63G G71A A113G", "polymerase ribozyme fitness (log ratio)": "≤ -4.2"},
      {"variant": "A21C C72G A73U C93U C99G G126U", "polymerase ribozyme fitness (log ratio)": "≤ -4.2"},
      {"variant": "A20U G42U U90G C96A G117A A137U", "polymerase ribozyme fitness (log ratio)": "≤ -4.2"},
      {"variant": "A20U G50C G58U C79G G84U U90G A107G C108G", "polymerase ribozyme fitness (log ratio)": "≤ -4.2"},
      {"variant": "A21U G84A G141A", "polymerase ribozyme fitness (log ratio)": 0.99},
      {"variant": "A21G C32G G34C U56A G59C U82G G88U C103G G140U", "polymerase ribozyme fitness (log ratio)": "≤ -4.2"},
      {"variant": "A21G C36U C57A", "polymerase ribozyme fitness (log ratio)": -0.735},
      {"variant": "A20U A41G A49U A52C G86C C96G", "polymerase ribozyme fitness (log ratio)": "≤ -4.2"},
      {"variant": "A21C C75G C96G C131G", "polymerase ribozyme fitness (log ratio)": -4.13},
      {"variant": "A21U C76G", "polymerase ribozyme fitness (log ratio)": "≤ -4.2"},
      {"variant": "A20G C38A C95U C125U G140C", "polymerase ribozyme fitness (log ratio)": "≤ -4.2"},
      {"variant": "A21C C32G G50A C93U A119U", "polymerase ribozyme fitness (log ratio)": "≤ -4.2"},
      {"variant": "A20G U53A", "polymerase ribozyme fitness (log ratio)": -1.01},
      {"variant": "A21G A22U G67A G86C C96U G117A", "polymerase ribozyme fitness (log ratio)": "≤ -4.2"},
      {"variant": "A22C A29C G68A G81A C85A C105G A142U", "polymerase ribozyme fitness (log ratio)": "≤ -4.2"},
      {"variant": "A21U C87U C96U C131G", "polymerase ribozyme fitness (log ratio)": "≤ -4.2"},
      {"variant": "A21C U45A A64G G92A", "polymerase ribozyme fitness (log ratio)": -3.46},
      {"variant": "A21C U61G C85U", "polymerase ribozyme fitness (log ratio)": 0.133},
      {"variant": "A21U C85U G124A G126A G136A", "polymerase ribozyme fitness (log ratio)": -3.04},
      {"variant": "A20C U55G G67U C72A C85U", "polymerase ribozyme fitness (log ratio)": "≤ -4.2"},
      {"variant": "A22C C57A C118U", "polymerase ribozyme fitness (log ratio)": -1.03},
      {"variant": "A21C A23G C85G G141C", "polymerase ribozyme fitness (log ratio)": -3.89},
      {"variant": "A21U A29C C95A U101G G126C U135G G143U", "polymerase ribozyme fitness (log ratio)": "≤ -4.2"},
      {"variant": "A20G A26U", "polymerase ribozyme fitness (log ratio)": -2.24},
      {"variant": "A21U C54U C63U G68A A73G C93G C108G U148G", "polymerase ribozyme fitness (log ratio)": "≤ -4.2"},
      {"variant": "A21C U61A A89U U90G G100U G136A A138C U144G", "polymerase ribozyme fitness (log ratio)": "≤ -4.2"},
      {"variant": "A20G G25C G58C A106U", "polymerase ribozyme fitness (log ratio)": -3.93},
      {"variant": "A21G C116G", "polymerase ribozyme fitness (log ratio)": 1.2},
      {"variant": "A22C A47C A73U G83U G84A C95U C103G C116U G140C", "polymerase ribozyme fitness (log ratio)": "≤ -4.2"},
      {"variant": "A21U A39C U90C C95U A97U", "polymerase ribozyme fitness (log ratio)": "≤ -4.2"},
      {"variant": "A22C A60G C87U", "polymerase ribozyme fitness (log ratio)": 0.179},
      {"variant": "A20U U33C G71A U104A A106G A107G A137C", "polymerase ribozyme fitness (log ratio)": "≤ -4.2"},
      {"variant": "A22C C27G C99U A106U G140U A147G", "polymerase ribozyme fitness (log ratio)": "≤ -4.2"},
      {"variant": "A22C C125U", "polymerase ribozyme fitness (log ratio)": -0.469},
      {"variant": "A20U G67U C116G", "polymerase ribozyme fitness (log ratio)": "≤ -4.2"},
      {"variant": "A21U U82C", "polymerase ribozyme fitness (log ratio)": 0.17},
      {"variant": "A20U C54A U56A G84C G86C C96U G117C A122U U144A A150G", "polymerase ribozyme fitness (log ratio)": "≤ -4.2"},
      {"variant": "A20U A26U A29U G46A A49C A106U", "polymerase ribozyme fitness (log ratio)": "≤ -4.2"},
      {"variant": "A20C G50U G83U", "polymerase ribozyme fitness (log ratio)": -0.904},
      {"variant": "A21U A37C A49G A52U A91C", "polymerase ribozyme fitness (log ratio)": "≤ -4.2"},
      {"variant": "A21G A52C C75G C85U A89G C96G A150G", "polymerase ribozyme fitness (log ratio)": -3.89},
      {"variant": "A20U G70C C93G", "polymerase ribozyme fitness (log ratio)": "≤ -4.2"},
      {"variant": "A20C G83C C96G", "polymerase ribozyme fitness (log ratio)": -1.83},
      {"variant": "A21U G136U", "polymerase ribozyme fitness (log ratio)": -2.65},
      {"variant": "A21G C132G", "polymerase ribozyme fitness (log ratio)": -3.9},
      {"variant": "A20U A60C A73G", "polymerase ribozyme fitness (log ratio)": -2.81},
      {"variant": "A21U C95U C99U", "polymerase ribozyme fitness (log ratio)": -0.768},
      {"variant": "A21G G83C U90C U146A A150C", "polymerase ribozyme fitness (log ratio)": "≤ -4.2"},
      {"variant": "A20G A22C G25C C57A G92A C99U C108A", "polymerase ribozyme fitness (log ratio)": "≤ -4.2"},
      {"variant": "A21G A24U U53A G94A", "polymerase ribozyme fitness (log ratio)": -0.529},
      {"variant": "A20C C57U G59C G62C G124A", "polymerase ribozyme fitness (log ratio)": -0.9}
    ]}
  ]
}
